Reference: FireProtDB (doi:10.1093/protein/14.11.891)

Conditions: Salmonella typhimurium (strain LT2 / SGSC1412 / ATCC 700720), pH 7, CD, Potassium phosphate 10 mM, reversible: yes, whole UniProt chain shown

B1: Sialidase wild type, P29768 (protein)
chain: MTVEKSVVFKAEGEHFTDQKGNTIVGSGSGGTTKYFRIPAMCTTSKGTIVVFADARHNTASDQSFIDTAAARSTDGGKTWNKKIAIYNDRVNSKLSRVMDPTCIVANIQGRETILVMVGKWNNNDKTWGAYRDKAPDTDWDLVLYKSTDDGVTFSKVETNIHDIVTKNGTISAMLGGVGSGLQLNDGKLVFPVQMVRTKNITTVLNTSFIYSTDGITWSLPSGYCEGFGSENNIIEFNASLVNNIRNSGLRRSFETKDFGKTWTEFPPMDKKVDNRNHGVQGSTITIPSGNKLVAAHSSAQNKNNDYTRSDISLYAHNLYSGEVKLIDDFYPKVGNASGAGYSCLSYRKNVDKETLYVVYEANGSIEFQDLSRHLPVIKSYN
- denaturant midpoint (higher = more stable) (25 °C, GdnHCl): 1.33 M
- unfolding free energy (25 °C, GdnHCl): 4.24 kcal/mol
- Tm (Thermal): 57 °C
